Measurements reported in publication doi:10.1101/2020.08.05.237438 (bioRxiv, 2020).

B1: recombinant ClpP2 S97A active-site mutant of Leptospira interrogans (enzyme, L. interrogans serovar Copenhageni, UniProt Q72R01 1-197, looked up)
chain: MPETEKIAEVFEELTGSKISKNFLDHRKIFLWGPVTDESSKDLVGKLLYLEMKDPGKKITFYINSPGGVVTSGMTVFDTIKMISSPVHTVCMGMAAAMGSVLLAAGTKGERSIWPNGKVMIHQPSIGGQIVAPATDLKIHAEEILKTKTKLNQILADACGHPISKLEEDTDRDYYMDAEEAIKYGIVDKLATKIDFN
B2: recombinant caseinolytic protease ClpP2 of Leptospira interrogans (enzyme, L. interrogans serovar Copenhageni, UniProt Q72R01 1-197, looked up)
chain: MPETEKIAEVFEELTGSKISKNFLDHRKIFLWGPVTDESSKDLVGKLLYLEMKDPGKKITFYINSPGGVVTSGMTVFDTIKMISSPVHTVCMGMAASMGSVLLAAGTKGERSIWPNGKVMIHQPSIGGQIVAPATDLKIHAEEILKTKTKLNQILADACGHPISKLEEDTDRDYYMDAEEAIKYGIVDKLATKIDFN

Legend:
[1] = molecular target: recombinant caseinolytic protease ClpP1 of Leptospira interrogans (L. interrogans serovar Copenhageni, UniProt Q72SG6 1-198); experiment: dynamic light scattering
[2] = molecular target: recombinant ClpP1 S98A active-site mutant of Leptospira interrogans (L. interrogans serovar Copenhageni, UniProt Q72SG6 1-198, S98A); experiment: dynamic light scattering

| Binder | binding result [1] | binding result [2] |
| --- | --- | --- |
| B1 | binds | – |
| B2 | binds | binds |
